This note sets out measurements from PMC6383945, “Elk1 affects katanin and spastin proteins via differential transcriptional and post-transcriptional regulations”.

This data set concerns the target T1, Elk1-db (ETS DNA-binding domain) (Homo sapiens, UniProt P19419 1-96).
T1 sequence: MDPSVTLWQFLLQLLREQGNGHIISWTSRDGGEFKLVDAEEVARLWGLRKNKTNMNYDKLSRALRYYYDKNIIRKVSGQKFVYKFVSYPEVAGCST
In words: EMSA; 10 mM Tris pH 7.5, 50 mM KCl, 1 mM DTT, 1 ug poly(dI-dC), 5% glycerol, 1 mM EDTA, 0.3% BSA, protease inhibitors; 20 fmol probe, 300 ng Elk1-db; 20 min room temperature; 6% native PAGE in 0.5X TBE at 4 C. The settings on record: protein: recombinant; tags: 6xHis; label: 3' biotin on both strands; blunt before labelling.

B1: KATNA1 UTR1_WT (+113/+122) (dsDNA)
DNA 1: CGAGGTCGTCCCCGGCACCGGAAGTGACCCTGGCGGGTTTGT
DNA 2: ACAAACCCGCCAGGGTCACTTCCGGTGCCGGGGACGACCTCG
As for B1, the binding result is listed as “binds”.

B2: KATNA1 UTR2_WT (+253/+262) (dsDNA)
DNA 1: GACTGGGTCAGGCCCTCCTTCCTCGCTGCCGGGATCTCCACTC
DNA 2: GAGTGGAGATCCCGGCAGCGAGGAAGGAGGGCCTGACCCAGTC
B2: the binding result is “no binding”.

B3: KATNA1 Promoter_WT (-428/-419) (dsDNA)
DNA 1: AGGGTGGAGATTGAGACTGGAGGAAGCCCTGTGCAGTACATAT
DNA 2: ATATGTACTGCACAGGGCTTCCTCCAGTCTCAATCTCCACCCT
Consider B3, for which the binding result is “no binding”.

B4: KATNA1 Promoter_Mut (dsDNA)
DNA 1: AGGGTGGAGATTGAGACCAAGAAGGACCCTGTGCAGTACATAT
DNA 2: ATATGTACTGCACAGGGTCCTTCTTGGTCTCAATCTCCACCCT
Turning to B4, the binding result was “no binding”.

B5: KATNA1 UTR1_Mut (dsDNA)
DNA 1: CGAGGTCGTCCCCGGTGTTAAGGATGACCCTGGCGGGTTTGT
DNA 2: ACAAACCCGCCAGGGTCATCCTTAACACCGGGGACGACCTCG
As to B5, the binding result was “no binding”.

B6: KATNA1 UTR2_Mut (dsDNA)
DNA 1: GACTGGGTCAGGCCCTCTCCTTCTATTGCCGGGATCTCCACTC
DNA 2: GAGTGGAGATCCCGGCAATAGAAGGAGAGGGCCTGACCCAGTC
As to B6, the binding result is on record as “no binding”.
